± gives the standard error. For part of these data: Fewer inactive variants are shown than the library holds.
B1: glmS ribozyme (parent)
chain: AUAAAAGCGCCAGAACUACAGAAAUGUAGUUGACGAGGAGGAGGUUUAUCGAAUUUUCGGCGGAUGCCUCCAAA

Columns and labels:
Conditions in all cases: with glucosamine-6-phosphate
glucosamine-6-phosphate [1] = variants of: B1; assay: kcat; higher = faster cleavage; RNA array
How it was run: (§1)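 Barcoded ribozyme variants were transcribed in situ on sequenced MiSeq chips by E. coli RNA polymerase. At 37 °C, a hybridised Cy3 probe tracked them while glucosamine-6-phosphate (40 μM to 10 mM) in HEPES/KCl/Mg(OAc)2 buffer flowed in and tiles were imaged over ~14 h. Per-tile medians of signals normalised to baseline and to non-cleaving reference variants were fit to one- or two-exponential decays, giving kobs. kcat and KM came from weighted Michaelis–Menten fits across concentrations.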

glucosamine-6-phosphate [2] = variants of: B1; assay: KM; higher = weaker cofactor use; RNA array
How it was run: as §1

glucosamine-6-phosphate [3] = variants of: B1; assay: self-cleavage kobs at 40 uM GlcN6P; higher = faster cleavage; RNA array
How it was run: as §1

glucosamine-6-phosphate [4] = variants of: B1; assay: self-cleavage kobs at 160 uM GlcN6P; higher = faster cleavage; RNA array
How it was run: as §1

glucosamine-6-phosphate [5] = variants of: B1; assay: self-cleavage kobs at 640 uM GlcN6P; higher = faster cleavage; RNA array
How it was run: as §1

glucosamine-6-phosphate [6] = variants of: B1; assay: self-cleavage kobs at 2500 uM GlcN6P; higher = faster cleavage; RNA array
How it was run: as §1

glucosamine-6-phosphate [7] = variants of: B1; assay: self-cleavage kobs at 10000 uM GlcN6P; higher = faster cleavage; RNA array
How it was run: as §1

| Variant | kcat (glucosamine-6-phosphate [1]) [s⁻¹] | KM (glucosamine-6-phosphate [2]) [µM] | self-cleavage kobs at 40 uM GlcN6P (glucosamine-6-phosphate [3]) [s⁻¹] | self-cleavage kobs at 160 uM GlcN6P (glucosamine-6-phosphate [4]) [s⁻¹] | self-cleavage kobs at 640 uM GlcN6P (glucosamine-6-phosphate [5]) [s⁻¹] | self-cleavage kobs at 2500 uM GlcN6P (glucosamine-6-phosphate [6]) [s⁻¹] | self-cleavage kobs at 10000 uM GlcN6P (glucosamine-6-phosphate [7]) [s⁻¹] |
| --- | --- | --- | --- | --- | --- | --- | --- |
| AUAAAAGCGCCAGAACUACAGAAAUGUAAUUGACGAGGCGGAGGUUUAUCGAAUUUUCGGCGGAUGCCUCCAAA | 0.000943 ± 4.4e-05 | 1820 ± 150 | 2.46e-05 ± 8.5e-06 | 7.61e-05 ± 1.5e-05 | 0.000243 ± 3.2e-05 | 0.000521 ± 8.6e-05 | 0.000813 ± 9.1e-05 |
| AUAAAAGCGCCAGAACUACAGAAAUGUAGUUGACGAGGUGGAGGUUUAUCGAAUUUUCGGCGGGUGCCUCCAAA | 0.031 ± 0.012 | – | 0.000447 ± 5.6e-05 | 0.00134 ± 0.00017 | 0.00498 ± 0.0006 | 0.0101 ± 0.0015 | 0.0327 ± 0.0047 |
| AUAAAAGCGCCAGAACUACAGAAAUGUAGUUCACGAGGAGGAGGUUUAUCGAAUUUUGGGCGGAUGCCUCCAAA | 8.83e-05 ± 1.4e-05 | 2580 ± 1100 | – | – | – | 4.79e-05 ± 7.8e-06 | 6.81e-05 ± 9.4e-06 |
| AUAAAAGCGCCAGAACUACAGAAAUGUAGUUGUCGAGGAGGAGGUUUAUCGAAUUUUCGGGGGAUGCCUCCAAA | < 1e-05 | – | < 1e-05 | – | – | – | < 1e-05 |
| AUAAAAGCGCCAGAACUACAGAAAUGUAGUUGACGAAGAGGGGGUUUAUCGAAUUUUCGGCGGAUGCCUCCAAA | 0.00683 ± 0.0013 | 3670 ± 920 | 8.75e-05 ± 1.5e-05 | 0.000301 ± 8.8e-05 | 0.000936 ± 0.00014 | 0.00251 ± 0.00044 | 0.00549 ± 0.00094 |
| AUAAAAGCGCCAGAACUACAGAAAUGUAGUUGACGAGGAGGAGGUUGAUCGAAUUUUCGGCGGAGGCCUCCAAA | 0.00249 ± 0.00033 | 2760 ± 530 | 3.08e-05 ± 1.1e-05 | 0.000153 ± 2e-05 | 0.000451 ± 7e-05 | 0.00107 ± 0.00015 | 0.0021 ± 0.00028 |
| AUAAAAGCGCCAGAACUACAGAAAUGUAGUUGUCGAGGAGGAGGUUUAUCGAAUUUUCUGCGGAUGCCUCCAAA | < 1e-05 | – | < 1e-05 | – | < 1e-05 | < 1e-05 | – |
| AUAAAAGCGCCAGAACUACAGAAAUGUAGUUGACGAGGAGGAGGUUAAUCGAAUUUUCGGAGGAUGCCUGUAAA | 1.64e-05 ± 4.7e-06 | – | – | – | – | – | – |
